Six molecules from patent US20220056118A1 (UNIVERSITY OF BRITISH COLUMBIA, published 2022) can be followed below.

Residue numbers refer to the chain shown, from its start.

To fix the notation:
B1: rabbit monoclonal antibody 17 (17H3-17K3) (antibody, V domains shown)
VH: QEQLVESGGGLVQPGASLTLTCTASGFSFSSSYVMCWVRQAPGKGLEWITCSDTGINTWYASWAKGRFTISKTSSTTVTLQMTSLTAADTATYFCARRYTGDTYLGNFNLWGQGTLVTVS
VL: AQVLTQTPASVSAAVGGTVTINCQASQSVYKNNYLSWYQQKPGQPPKLLIYKASTLASGVPSRFKGSGSGTQFTLTISDVQCDDAATYYCAGGWRSLNAFGGGTEVVVK
notes: Recombinant; also called Rabbit 17; clone 17
B2: mouse monoclonal antibody 2F7 (antibody, V domains shown)
VH: DVKLVESGGGLVKLGGSLKLSCAASGFTFSSYYMSWVRQTPEKRLELVATINSNGGSTYYPDTVKGRITISRDNAKNTLQLQMSSLRSEDTALYYCVRQNYEGAYWGQGTLVTVSA
VL: DVLMTQTPLSLPVTLGDQASISCRSSQSIVHSNGNTYLEWYLQKPGQSPKLLIYKVSNRFSGVPDRFSGSGSGTDFTLKISRVEAEDLGVYYCFQSSHVPWTFGGGTKLEIK
notes: Mouse hybridoma antibody; also called Mouse 2F7
B3: mouse monoclonal antibody 3E8 (antibody, V domains shown)
VH: B2 VH
VL: B2 VL
notes: Mouse hybridoma antibody; also called Mouse 3E8
B4: rabbit monoclonal antibody 14 (14H1-14K2) (antibody, V domains shown)
VH: QEQLEESGGDLVKPEGSLTLTCTASGFSFSSNYVMCWVRQAPGKGLEWVACIWFAGIVDTTYYATWAKGRFTISKTSSTTVTLQMTSLTAADTATYFCARNPVGSVNLWGQGTLVTVS
VL: VMTQTPSSKSVPVGGSVTINCQASESVYSNNRLSWYQQKPGQPPKLLIYYASTLESGVPSRFKGSGFGTHFTLTISGAQCDDAATYYCAGWRGARTDGVDFGGGTEVVVK
notes: Recombinant; also called Rabbit 14; clone 14
B5: rabbit monoclonal antibody 1 (1H3-1K3) (antibody, V domains shown)
VH: QSVEESGGRLVTPGTPLTLTCTVSGFSLSRYYMTWVRQAPGKGLEYIGVIIPGGTTYYASWAKGRFTISKTSTTVDLRITSPTTEDTATYFCAGGPTGNSHFTLWGQGTLVTVS
VL: VMTQTPSSKSVPVGGTVTINCQASESVYNNNHLSWYQQKSGQPPKLLIYEASKLESGVPPRFKGSGSGTQFTLTISDVVCDDAATYYCSGYKRVTTDGIAFGGGTEVVVK
notes: Recombinant; also called Rabbit 1; clone 1
B6: rabbit monoclonal antibody 38 (38H1-38K1) (antibody, V domains shown)
VH: B5 VH with L28F, R30A, Y46F, I50T, G53I, T55R, D76H, R78K, T89A
VL: B5 VL with G15D, H32Q, S40P, E50Q, P60S, S89A, R93S, V94P
notes: Recombinant; also called clone 38

The first experiment deals with T1, DAGWGNLc (SEQ ID NO: 9) peptide conjugated to bovine serum albumin (human; bovine, UniProt P02769 25-607, N-terminus acetylated; C-terminal Cys conjugated to BSA).
T1 construct: TDP-43 residues 65-71 plus an added C-terminal cysteine; also called Peptide conjugated to bovine serum albumin (BSA)
T1 sequence (P02769 25-607 limits assumed): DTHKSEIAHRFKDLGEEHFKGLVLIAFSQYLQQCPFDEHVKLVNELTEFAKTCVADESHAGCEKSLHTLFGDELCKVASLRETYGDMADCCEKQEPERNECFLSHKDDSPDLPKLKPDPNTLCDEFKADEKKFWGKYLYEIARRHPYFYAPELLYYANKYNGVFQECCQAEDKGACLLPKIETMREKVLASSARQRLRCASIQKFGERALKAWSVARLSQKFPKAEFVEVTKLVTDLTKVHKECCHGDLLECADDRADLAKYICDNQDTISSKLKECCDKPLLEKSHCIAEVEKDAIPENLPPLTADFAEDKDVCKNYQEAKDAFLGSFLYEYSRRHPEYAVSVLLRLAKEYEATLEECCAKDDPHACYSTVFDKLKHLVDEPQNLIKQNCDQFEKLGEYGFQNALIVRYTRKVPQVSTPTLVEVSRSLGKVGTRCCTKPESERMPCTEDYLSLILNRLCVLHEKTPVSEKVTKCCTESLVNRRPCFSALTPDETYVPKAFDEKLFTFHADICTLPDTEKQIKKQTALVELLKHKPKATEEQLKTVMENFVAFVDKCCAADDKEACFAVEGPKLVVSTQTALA
Briefly: SPR, peptide-BSA immobilized (about 50 RU), antibody injected, Langmuir 1:1 fit. As to the method: Surface plasmon resonance (SPR) analysis was used to measure the binding kinetics of monoclonal antibodies to the peptide epitope. Peptide conjugated to bovine serum albumin (BSA) was immobilized at a very low density (approximately 50 RUs) on flow cells of a sensor chip. Purified mouse or rabbit monoclonal antibodies diluted 4-fold from 31.25 nM to 0.24 nM were injected sequentially over the surfaces for approximately 5 min followed by dissociation in buffer and surface regeneration. Binding parameters were calculated using kinetic curve fitting and a Langmuir 1:1 interaction model.
Molecule B1 registered a Kd of 91.9 pM, a koff of 4.32e-05 s⁻¹ and a kon of 470000 M⁻¹ s⁻¹.
Molecule B2 showed a Kd of 622 pM, a koff of 0.00176 s⁻¹ and a kon of 2.83e+06 M⁻¹ s⁻¹.
The like results for B3 were, in that order, 722 pM, 0.002 s⁻¹ and 2.77e+06 M⁻¹ s⁻¹.
The corresponding values for B4 are 15.1 pM, 9.04e-06 s⁻¹ and 599000 M⁻¹ s⁻¹.
The like results for B5 were, in that order, 62 pM, 2.5e-05 s⁻¹ and 403000 M⁻¹ s⁻¹.

In a further experiment the target is T2, HA-tagged wild-type human TDP-43 with the original NLS sequence (WT-TDP43) (human, UniProt Q13148 1-414).
T2 construct: whole, on cells; Overexpressed inside transfected HEK293FT cells; also called wildtype TDP-43-HA; WT nuclear TDP-43-HA; not shown: HA tag
T2 sequence (Q13148 whole entry): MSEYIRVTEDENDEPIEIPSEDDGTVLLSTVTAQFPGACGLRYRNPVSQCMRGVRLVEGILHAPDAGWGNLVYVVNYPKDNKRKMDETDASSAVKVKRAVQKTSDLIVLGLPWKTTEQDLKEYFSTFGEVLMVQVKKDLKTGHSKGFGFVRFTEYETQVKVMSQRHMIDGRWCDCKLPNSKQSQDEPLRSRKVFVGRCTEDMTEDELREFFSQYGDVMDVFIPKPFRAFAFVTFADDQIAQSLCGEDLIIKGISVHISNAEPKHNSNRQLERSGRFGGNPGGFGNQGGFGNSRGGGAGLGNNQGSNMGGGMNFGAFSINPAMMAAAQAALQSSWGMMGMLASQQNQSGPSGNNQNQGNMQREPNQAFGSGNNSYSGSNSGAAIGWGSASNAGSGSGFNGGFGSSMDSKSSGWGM
Briefly: immunocytochemistry, transfected HEK293FT cells; column: Binding to nuclear WT TDP-43.
B4: the binding result is listed as “no binding (tested: 10 ug/ml)”.
On the same count and under the same terms, the value for B6 was “no binding (tested: 10 ug/ml)”.

The target of the next experiment is T3, endogenous TDP-43 of HEK293FT cells (human, UniProt Q13148 1-414).
T3 construct: whole, on cells; Two states of the same protein are tested: nuclear in cells transfected with empty vector, and in the stress granules of cells stressed with sodium arsenite; the state is named in each row; also called endogenous, nuclear WT TDP-43; TDP-43 in physiologic stress granules
T3 sequence (Q13148 whole entry): as above
Briefly: immunocytochemistry, arsenite-stressed HEK293FT cells; column: Binding to stress granules.
With B4, the binding result is “no binding (tested: 10 ug/ml)”.
Still for that read-out and setting: the value for B6 was “no binding (tested: 10 ug/ml)”.
